For one molecule, mouse IL-18 reporter assay EC50, +Mouse IL-18BP 50 nM and mouse IL-18 reporter assay EC50, without mouse IL-18BP results are on record in patent publication US20240182536A1.

Where only a bound is given, the exact number is not on record here.

The target of test [1] is T1, mouse IL-18 binding protein (mouse) (UniProt Q9Z0M9).
T1 sequence (looked up): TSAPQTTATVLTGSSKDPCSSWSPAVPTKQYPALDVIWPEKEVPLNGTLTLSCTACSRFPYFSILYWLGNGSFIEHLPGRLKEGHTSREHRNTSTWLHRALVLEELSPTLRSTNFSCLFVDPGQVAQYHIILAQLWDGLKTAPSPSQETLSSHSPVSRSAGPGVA
In words: cell-based or functional assay.

Test [2] addresses T2, mouse IL-18 receptors on PathHunter U2OS mIL18-NF-kb reporter cells (mouse) (UniProt Q61098).
T2 sequence (looked up) 1: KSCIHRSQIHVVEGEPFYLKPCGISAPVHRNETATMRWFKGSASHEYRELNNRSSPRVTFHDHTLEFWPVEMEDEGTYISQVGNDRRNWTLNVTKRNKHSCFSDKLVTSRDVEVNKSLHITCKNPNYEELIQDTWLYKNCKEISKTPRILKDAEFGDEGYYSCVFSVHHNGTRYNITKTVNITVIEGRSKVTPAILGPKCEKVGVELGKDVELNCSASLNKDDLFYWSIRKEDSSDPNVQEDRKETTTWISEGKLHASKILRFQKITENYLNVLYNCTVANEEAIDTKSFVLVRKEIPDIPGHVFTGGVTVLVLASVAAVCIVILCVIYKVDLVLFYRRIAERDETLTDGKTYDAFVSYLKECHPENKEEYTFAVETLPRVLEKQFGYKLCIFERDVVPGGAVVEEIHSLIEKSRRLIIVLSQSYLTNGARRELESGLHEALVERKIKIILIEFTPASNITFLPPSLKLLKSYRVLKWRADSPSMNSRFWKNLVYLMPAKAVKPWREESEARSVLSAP
T2 sequence (looked up) 2: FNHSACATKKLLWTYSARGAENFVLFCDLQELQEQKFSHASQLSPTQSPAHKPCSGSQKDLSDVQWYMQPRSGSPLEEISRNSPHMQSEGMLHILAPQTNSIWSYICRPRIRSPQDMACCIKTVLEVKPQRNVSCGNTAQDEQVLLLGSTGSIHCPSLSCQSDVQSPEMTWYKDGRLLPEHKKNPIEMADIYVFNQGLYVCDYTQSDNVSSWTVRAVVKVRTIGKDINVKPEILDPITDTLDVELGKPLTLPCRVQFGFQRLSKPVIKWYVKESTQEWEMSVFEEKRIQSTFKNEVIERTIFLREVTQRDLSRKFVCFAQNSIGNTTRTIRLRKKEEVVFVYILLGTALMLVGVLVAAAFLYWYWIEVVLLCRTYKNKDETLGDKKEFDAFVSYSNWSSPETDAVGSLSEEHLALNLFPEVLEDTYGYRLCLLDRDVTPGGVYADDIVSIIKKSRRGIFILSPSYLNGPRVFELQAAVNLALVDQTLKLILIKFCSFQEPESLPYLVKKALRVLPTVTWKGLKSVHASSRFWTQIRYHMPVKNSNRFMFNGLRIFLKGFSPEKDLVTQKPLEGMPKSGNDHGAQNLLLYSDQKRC
In words: cell-based or functional assay.

B1: WT mouse IL-18 (ligand, UniProt P70380 36-192, looked up)
chain: NFGRLHCTTAVIRNINDQVLFVDKRQPVFEDMTDIDQSASEPQTRLIIYMYKDSEVRGLAVTLSVKDSKMSTLSCKNKIISFEEMDPPENIDDIQSDLIFFQKRVPGHNKMEFESSLYEGHFLACQKEDDAFKLILKKKDENGDKSVMFTLTNLHQS
B1 came in with a mouse IL-18 reporter assay EC50, +Mouse IL-18BP 50 nM in test [1] of over 500 pM. The same molecule returned a mouse IL-18 reporter assay EC50, without mouse IL-18BP in test [2] of 0.61 pM.
